Experiments:
HeLa Kyoto [1] = assay: melting temperature (median over replicates), in situ; higher = more thermally stable
HeLa Kyoto [2] = assay: thermal stability score vs G1/S (z-score of summed log2 fold changes over temperatures); higher = more thermally stable than in G1/S
HeLa Kyoto [3] = assay: solubility change mitosis vs G1/S (difference of NP-40 vs SDS log2 ratios) (log2 ratio difference); higher = more soluble in mitosis
HeLa Kyoto [4] = assay: solubility in G1/S (NP-40 vs SDS abundance) (log2 ratio); higher = more soluble; details: cell cycle stage: G1/S
[5] = cell cycle stage: early G1 (4.5 h after nocodazole release)
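Throughout, for melting temperature (median over replicates), in situ: HeLa Kyoto cells synchronized by double thymidine or nocodazole block, proteins quantified by TMT10plex mass spectrometry, three independent biological replicates.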
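Throughout, for solubility change mitosis vs G1/S (difference of NP-40 vs SDS log2 ratios): synchronized HeLa Kyoto cells (double thymidine block for G1/S, nocodazole release for mitosis), protein amounts in NP-40 versus SDS lysates quantified by mass spectrometry, three biological replicates.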
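Throughout, for solubility in G1/S (NP-40 vs SDS abundance): HeLa Kyoto cells arrested at G1/S by double thymidine block, proteins quantified by TMT10plex mass spectrometry in mild NP-40 versus SDS extracts, three biological replicates.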
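Throughout, for thermal stability score vs G1/S (z-score of summed log2 fold changes over temperatures): synchronized HeLa Kyoto cells, proteins quantified by TMT10plex mass spectrometry, three biological replicates, mitosis taken 0.5 h after nocodazole release, G1/S directly after double thymidine block.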

Sequence | melting temperature (HeLa Kyoto [1]; cell cycle stage: G1/S) [°C] | melting temperature (HeLa Kyoto [1]; cell cycle stage: mitosis) [°C] | thermal stability score (HeLa Kyoto [2]; [5]) | thermal stability score (HeLa Kyoto [2]; cell cycle stage: mitosis) | solubility change mitosis (log2) (HeLa Kyoto [3]) | solubility in G1/S (log2) (HeLa Kyoto [4])
METILEQQRRYHEEKERLMDVMAKEMLTKKSTLRDQINSDHRTRAMQDRYMEVSGNLRDLYDDKDGLRKEELNAISGPNEFAEFYNRLKQIKEFHRKHPNEICVPMSVEFEELLKARENPSEEAQNLVEFTDEEGYGRYLDLHDCYLKYINLKASEKLDYITYLSIFDQLFDIPKERKNAEYKRYLEMLLEYLQDYTDRVKPLQDQNELFGKIQAEFEKKWENGTFPGWPKETSSALTHAGAHLDLSAFSSWEELASLGLDRLKSALLALGLKCGGTLEERAQRLFSTKGKSLESLDTSLFAKNPKSKGTKRDTERNKDIAFLEAQIYEYVEILGEQRHLTHENVQRKQARTGEEREEEEEEQISESESEDEENEIIYNPKNLPLGWDGKPIPYWLYKLHGLNINYNCEICGNYTYRGPKAFQRHFAEWRHAHGMRCLGIPNTAHFANVTQIEDAVSLWAKLKLQKASERWQPDTEEEYEDSSGNVVNKKTYEDLKRQGLL [SF3A3] | 49.8 | 48.1 | 0.0461 | 0.769 | 0.129 | 0.132
METQLSNGPTCNNTANGPTTINNNCSSPVDSGNTEDSKTNLIVNYLPQNMTQEELKSLFGSIGEIESCKLVRDKITGQSLGYGFVNYIDPKDAEKAINTLNGLRLQTKTIKVSYARPSSASIRDANLYVSGLPKTMTQKELEQLFSQYGRIITSRILVDQVTGISRGVGFIRFDKRIEAEEAIKGLNGQKPPGATEPITVKFANNPSQKTNQAILSQLYQSPNRRYPGPLAQQAQRFRLDNLLNMAYGVKRFSPMTIDGMTSLAGINIPGHPGTGWCIFVYNLAPDADESILWQMFGPFGAVTNVKVIRDFNTNKCKGFGFVTMTNYDEAAMAIASLNGYRLGDRVLQVSFKTNKTHKA [ELAVL2] | 52.6 | 52.2 | -0.26 | -1.01 | -0.0286 | 0.208
METVISSDSSPAVENEHPQETPESNNSVYTSFMKSHRCYDLIPTSSKLVVFDTSLQVKKAFFALVTNGVRAAPLWDSKKQSFVGMLTITDFINILHRYYKSALVQIYELEEHKIETWREVYLQDSFKPLVCISPNASLFDAVSSLIRNKIHRLPVIDPESGNTLYILTHKRILKFLKLFITEFPKPEFMSKSLEELQIGTYANIAMVRTTTPVYVALGIFVQHRVSALPVVDEKGRVVDIYSKFDVINLAAEKTYNNLDVSVTKALQHRSHYFEGVLKCYLHETLETIINRLVEAEVHRLVVVDENDVVKGIVSLSDILQALVLTGGEKKP [PRKAG1] | 50.7 | 51.2 | 0.779 | 1.52 | -0.127 | 0.164
MEVPPRLSHVPPPLFPSAPATLASRSLSHWRPRPPRQLAPLLPSLAPSSARQGARRAQRHVTAQQPSRLAGGAAIKGGRRRRPDLFRRHFKSSSIQRSAAAAAATRTARQHPPADSSVTMEDMNEYSNIEEFAEGSKINASKNQQDDGKMFIGGLSWDTSKKDLTEYLSRFGEVVDCTIKTDPVTGRSRGFGFVLFKDAASVDKVLELKEHKLDGKLIDPKRAKALKGKEPPKKVFVGGLSPDTSEEQIKEYFGAFGEIENIELPMDTKTNERRGFCFITYTDEEPVKKLLESRYHQIGSGKCEIKVAQPKEVYRQQQQQQKGGRGAAAGGRGGTRGRGRGQGQNWNQGFNNYYDQGYGNYNSAYGGDQNYSGYGGYDYTGYNYGNYGYGQGYADYSGQQSTYGKASRGGGNHQNNYQPY [HNRNPDL] | 54.4 | 53.6 | 0.0293 | -2.51 | 0.352 | -0.122
MEVTGDAGVPESGEIRTLKPCLLRRNYSREQHGVAASCLEDLRSKACDILAIDKSLTPVTLVLAEDGTIVDDDDYFLCLPSNTKFVALASNEKWAYNNSDGGTAWISQESFDVDETDSGAGLKWKNVARQLKEDLSSIILLSEEDLQMLVDAPCSDLAQELRQSCATVQRLQHTLQQVLDQREEVRQSKQLLQLYLQALEKEGSLLSKQEESKAAFGEEVDAVDTGISRETSSDVALASHILTALREKQAPELSLSSQDLELVTKEDPKALAVALNWDIKKTETVQEACERELALRLQQTQSLHSLRSISASKASPPGDLQNPKRARQDPT [DFFA] | 54.2 | 54.5 | -1.44 | -0.858 | 0.0192 | 0.392
MEWGSESAAVRRHRVGVERREGAAAAPPPEREARAQEPLVDGCSGGGRTRKRSPGGSGGASRGAGTGLSEVRAALGLALYLIALRTLVQLSLQQLVLRGAAGHRGEFDALQARDYLEHITSIGPRTTGSPENEILTVHYLLEQIKLIEVQSNSLHKISVDVQRPTGSFSIDFLGGFTSYYDNITNVVVKLEPRDGAQHAVLANCHFDSVANSPGASDDAVSCSVMLEVLRVLSTSSEALHHAVIFLFNGAEENVLQASHGFITQHPWASLIRAFINLEAAGVGGKELVFQTGPENPWLVQAYVSAAKHPFASVVAQEVFQSGIIPSDTDFRIYRDFGNIPGIDLAFIENGYIYHTKYDTADRILTDSIQRAGDNILAVLKHLATSDMLAAASKYRHGNMVFFDVLGLFVIAYPSRIGSIINYMVVMGVVLYLGKKFLQPKHKTGNYKKDFLCGLGITLISWFTSLVTVLIIAVFISLIGQSLSWYNHFYVSVCLYGTATVAKIILIHTLAKRFYYMNASAQYLGEVFFDISLFVHCCFLVTLTYQGLCSAFISAVWVAFPLLTKLCVHKDFKQHGAQGKFIAFYLLGMFIPYLYALYLIWAVFEMFTPILGRSGSEIPPDVVLASILAGCTMILSSYFINFIYLAKSTKKTMLTLTLVCAITFLLVCSGTFFPYSSNPANPKPKRVFLQHMTRTFHDLEGNAVKRDSGIWINGFDYTGISHITPHIPEINDSIRAHCEENAPLCGFPWYLPVHFLIRKNWYLPAPEVSPRNPPHFRLISKEQTPWDSIKLTFEATGPSHMSFYVRAHKGSTLSQWSLGNGTPVTSKGGDYFVFYSHGLQASAWQFWIEVQVSEEHPEGMVTVAIAAHYLSGEDKRSPQLDALKEKFPDWTFPSAWVCTYDLFVF [ERMP1] | 58.8 | 56.7 | -3 | -4.39 | -0.18 | -0.0493
MEWWASSPLRLWLLLFLLPSAQGRQKESGSKWKVFIDQINRSLENYEPCSSQNCSCYHGVIEEDLTPFRGGISRKMMAEVVRRKLGTHYQITKNRLYRENDCMFPSRCSGVEHFILEVIGRLPDMEMVINVRDYPQVPKWMEPAIPVFSFSKTSEYHDIMYPAWTFWEGGPAVWPIYPTGLGRWDLFREDLVRSAAQWPWKKKNSTAYFRGSRTSPERDPLILLSRKNPKLVDAEYTKNQAWKSMKDTLGKPAAKDVHLVDHCKYKYLFNFRGVAASFRFKHLFLCGSLVFHVGDEWLEFFYPQLKPWVHYIPVKTDLSNVQELLQFVKANDDVAQEIAERGSQFIRNHLQMDDITCYWENLLSEYSKFLSYNVTRRKGYDQIIPKMLKTEL [POGLUT1] | 52.9 | 54 | 2.61 | 3.25 | -0.0965 | 0.28
MEYMAESTDRSPGHILCCECGVPISPNPANICVACLRSKVDISQGIPKQVSISFCKQCQRYFQPPGTWIQCALESRELLALCLKKIKAPLSKVRLVDAGFVWTEPHSKRLKVKLTIQKEVMNGAILQQVFVVDYVVQSQMCGDCHRVEAKDFWKAVIQVRQKTLHKKTFYYLEQLILKYGMHQNTLRIKEIHDGLDFYYSSKQHAQKMVEFLQCTVPCRYKASQRLISQDIHSNTYNYKSTFSVEIVPICKDNVVCLSPKLAQSLGNMNQICVCIRVTSAIHLIDPNTLQVADIDGSTFWSHPFNSLCHPKQLEEFIVMECSIVQDIKRAAGAGMISKKHTLGEVWVQKTSEMNTDKQYFCRTHLGHLLNPGDLVLGFDLANCNLNDEHVNKMNSDRVPDVVLIKKSYDRTKRQRRRNWKLKELARERENMDTDDERQYQDFLEDLEEDEAIRKNVNIYRDSAIPVESDTDDEGAPRISLAEMLEDLHISQDATGEEGASMLT [NMD3] | 52.2 | 52.2 | -1.14 | -1.18 | -0.0927 | -0.119
MFDTTPHSGRSTPSSSPSLRKRLQLLPPSRPPPEPEPGTMVEKGSDSSSEKGGVPGTPSTQSLGSRNFIRNSKKMQSWYSMLSPTYKQRNEDFRKLFSKLPEAERLIVDYSCALQREILLQGRLYLSENWICFYSNIFRWETTISIQLKEVTCLKKEKTAKLIPNAIQICTESEKHFFTSFGARDRCFLLIFRLWQNALLEKTLSPRELWHLVHQCYGSELGLTSEDEDYVSPLQLNGLGTPKEVGDVIALSDITSSGAADRSQEPSPVGSRRGHVTPNLSRASSDADHGAEEDKEEQVDSQPDASSSQTVTPVAEPPSTEPTQPDGPTTLGPLDLLPSEELLTDTSNSSSSTGEEADLAALLPDLSGRLLINSVFHVGAERLQQMLFSDSPFLQGFLQQCKFTDVTLSPWSGDSKCHQRRVLTYTIPISNPLGPKSASVVETQTLFRRGPQAGGCVVDSEVLTQGIPYQDYFYTAHRYCILGLARNKARLRVSSEIRYRKQPWSLVKSLIEKNSWSGIEDYFHHLERELAKAEKLSLEEGGKDARGLLSGLRRRKRPLSWRAHGDGPQHPDPDPCARAGIHTSGSLSSRFSEPSVDQGPGAGIPSALVLISIVICVSLIILIALNVLLFYRLWSLERTAHTFESWHSLALAKGKFPQTATEWAEILALQKQFHSVEVHKWRQILRASVELLDEMKFSLEKLHQGITVSDPPFDTQPRPDDSFS [GRAMD1A] | 50.4 | 51.8 | 0.21 | 0.368 | -0.0358 | -0.0369
MFEIKKICCIGAGYVGGPTCSVIAHMCPEIRVTVVDVNESRINAWNSPTLPIYEPGLKEVVESCRGKNLFFSTNIDDAIKEADLVFISVNTPTKTYGMGKGRAADLKYIEACARRIVQNSNGYKIVTEKSTVPVRAAESIRRIFDANTKPNLNLQVLSNPEFLAEGTAIKDLKNPDRVLIGGDETPEGQRAVQALCAVYEHWVPREKILTTNTWSSELSKLAANAFLAQRISSINSISALCEATGADVEEVATAIGMDQRIGNKFLKASVGFGGSCFQKDVLNLVYLCEALNLPEVARYWQQVIDMNDYQRRRFASRIIDSLFNTVTDKKIAILGFAFKKDTGDTRESSSIYISKYLMDEGAHLHIYDPKVPREQIVVDLSHPGVSEDDQVSRLVTISKDPYEACDGAHAVVICTEWDMFKELDYERIHKKMLKPAFIFDGRRVLDGLHNELQTIGFQIETIGKKVSSKRIPYAPSGEIPKFSLQDPPNKKPKV [UGDH] | 54 | 54.2 | 0.636 | 0.376 | -0.0998 | 0.126
MFFTCGPNEAMVVSGFCRSPPVMVAGGRVFVLPCIQQIQRISLNTLTLNVKSEKVYTRHGVPISVTGIAQVKIQGQNKEMLAAACQMFLGKTEAEIAHIALETLEGHQRAIMAHMTVEEIYKDRQKFSEQVFKVASSDLVNMGISVVSYTLKDIHDDQDYLHSLGKARTAQVQKDARIGEAEAKRDAGIREAKAKQEKVSAQYLSEIEMAKAQRDYELKKAAYDIEVNTRRAQADLAYQLQVAKTKQQIEEQRVQVQVVERAQQVAVQEQEIARREKELEARVRKPAEAERYKLERLAEAEKSQLIMQAEAEAASVRMRGEAEAFAIGARARAEAEQMAKKAEAFQLYQEAAQLDMLLEKLPQVAEEISGPLTSANKITLVSSGSGTMGAAKVTGEVLDILTRLPESVERLTGVSISQVNHKPLRTA [FLOT1] | 55.3 | 53.7 | -2.16 | 0.224 | 0.121 | -0.837
MFISLWEFFYGHFFRFWMKWLLRQMTGKCELQRIFDTYVGAQRTHRIENSLTYSKNKVLQKATHVVQSEVDKYVDDIMKEKNINPEKDASFKICMKMCLLQITGYKQLYLDVESVRKRPYDSDNLQHEELLMKLWNLLMPTKKLNARISKQWAEIGFQGDDPKTDFRGMGILGLINLVYFSENYTSEAHQILSRSNHPKLGYSYAIVGINLTEMAYSLLKSEALKFHLYNLVPGIPTMEHFHQFYCYLVYEFDKFWFEEEPESIMYFNLYREKFHEKIKGLLLDCNVALTLKV [ELMOD2] | 51.5 | 51.3 | -0.373 | -0.0202 | -0.25 | -0.348
